# Laboratory results published in article PMC6327041 (Nature Communications, 2019).
# Target: T1, KDM5A1-797 (Homo sapiens, UniProt P29375)
# T1 construct: KDM5A1-797 was cloned into a pFASTBAC HTA vector; His (N, cleaved yes); made in house; host or cells: Sf21 insect cells (baculovirus)
# T1 sequence (P29375 1-797): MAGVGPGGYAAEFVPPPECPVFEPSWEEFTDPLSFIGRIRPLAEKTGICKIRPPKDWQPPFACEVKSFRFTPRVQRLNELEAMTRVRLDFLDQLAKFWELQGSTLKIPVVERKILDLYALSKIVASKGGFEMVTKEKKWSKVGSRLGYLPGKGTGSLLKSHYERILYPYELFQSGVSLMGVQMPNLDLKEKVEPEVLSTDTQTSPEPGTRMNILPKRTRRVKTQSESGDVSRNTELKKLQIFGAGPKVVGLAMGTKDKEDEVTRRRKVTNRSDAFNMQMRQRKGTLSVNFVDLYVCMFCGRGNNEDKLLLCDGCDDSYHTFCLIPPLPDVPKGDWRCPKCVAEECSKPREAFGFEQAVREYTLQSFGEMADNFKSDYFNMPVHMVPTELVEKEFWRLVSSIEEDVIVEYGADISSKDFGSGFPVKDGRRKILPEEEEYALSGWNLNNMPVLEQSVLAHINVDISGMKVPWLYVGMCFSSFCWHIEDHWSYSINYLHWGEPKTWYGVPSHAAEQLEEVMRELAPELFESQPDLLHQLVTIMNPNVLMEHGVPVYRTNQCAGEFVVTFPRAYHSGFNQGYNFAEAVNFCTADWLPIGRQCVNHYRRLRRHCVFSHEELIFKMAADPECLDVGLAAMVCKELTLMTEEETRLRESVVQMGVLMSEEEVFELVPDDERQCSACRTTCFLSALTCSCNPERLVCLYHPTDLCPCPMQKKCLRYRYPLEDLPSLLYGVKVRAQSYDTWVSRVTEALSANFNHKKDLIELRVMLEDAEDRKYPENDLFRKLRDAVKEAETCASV
# Test: HDX-MS of KDM5A with peptides
# Procedure: Solution-phase amide HDX experiments were carried out with a fully automated system (CTC HTS PAL, LEAP Technologies, Carrboro, NC; housed inside a 4 °C cabinet).
# Peptides were identified using tandem MS (MS^2 or MS/MS) experiments performed with a LTQ linear ion trap mass spectrometer (LTQ Orbitrap XL with ETD, Thermo Fisher, San Jose, CA) over a 70 min gradient. Product ion spectra were acquired in a data-dependent mode and the five most abundant ions were selected for the product ion analysis per scan event. The MS/MS *.raw data files were converted to *.mgf files and then submitted to MASCOT ver2.3 (Matrix Science, London, UK) for peptide identification. […]
# For differential HDX experiments, 5 μl of 20 μM KDM5A1-797 was diluted to 25 μl with D2O-containing HDX buffer (40 mM HEPES, 50 mM KCl, pH 7.9) and incubated at 4 °C for 10, 30, 60, 900, and 3600 s. […] Percent deuterium exchange values for peptide isotopic envelopes at each time point were calculated and processed using HDX Workbench. […] The intensity weighted mean m/z centroid value of each peptide envelope was calculated and subsequently converted into a percentage of deuterium incorporation. Statistical significance for the differential HDX data is determined by an unpaired t-test for each time point, a procedure that is integrated into the HDX Workbench software. […]
"perturbation of deuterium uptake (Ac-H3K4me3 21mer alone (500 µM) vs apo, 4 °C, triplicate)",Substance,"deuterium exchange of PHD1 residues Gly300-Ala342, both peptides (H3 10mer (100 µM) and Ac-H3K4me3 21mer (500 µM) both present vs apo)"
no perturbations are observed,"Ac-H3K4me3 21mer: N-terminally acetylated 21mer H3K4me3 peptide, catalytic domain substrate",
,"H3: unmodified N-terminal H3 tail 10mer peptide (H3 Ala1-Ser10), PHD1 effector ligand",increased protection observed in the PHD1 domain
